Publication PMC5437283

What was measured:
Details in all cases: remark: other sources report otherwise
[1] = biological target: T1, wildtype pneumolysin (PLYWT) (Streptococcus pneumoniae), P0C2J9; test: electron cryo-tomography with subtomogram averaging; pores: preformed cholesterol-containing liposomes incubated with PLY (1 mg/ml) at 37°C for 30-180 min; subtomogram average at 27 Å
T1 chain: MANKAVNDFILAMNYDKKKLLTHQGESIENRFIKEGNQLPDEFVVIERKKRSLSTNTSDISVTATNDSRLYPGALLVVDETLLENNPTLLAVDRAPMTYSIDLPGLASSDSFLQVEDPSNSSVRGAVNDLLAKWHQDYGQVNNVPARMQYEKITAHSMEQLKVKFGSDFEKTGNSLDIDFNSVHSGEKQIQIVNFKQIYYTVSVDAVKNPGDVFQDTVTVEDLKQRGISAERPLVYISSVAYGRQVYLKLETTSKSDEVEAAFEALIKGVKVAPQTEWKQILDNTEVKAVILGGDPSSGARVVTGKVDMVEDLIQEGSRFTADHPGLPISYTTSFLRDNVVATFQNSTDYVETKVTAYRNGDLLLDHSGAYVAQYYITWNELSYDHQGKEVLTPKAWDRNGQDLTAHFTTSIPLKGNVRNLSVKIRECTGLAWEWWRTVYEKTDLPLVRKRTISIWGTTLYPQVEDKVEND

[2] = biological target: T1, wildtype pneumolysin (PLYWT) …; test: electron cryo-tomography with subtomogram averaging; prepores: preformed cholesterol-containing liposomes incubated with PLY (1 mg/ml) at room temperature for 30 min; subtomogram average at 22 Å
[3] = biological target: T1, wildtype pneumolysin (PLYWT) …; test: cryo-EM structure; single-particle cryoEM of PLY pore complexes formed on DOPC/cholesterol liposomes (37°C, 30 min), solubilised with 0.56% Cymal-6 and exchanged into amphipol A8-35; 50 mM Tris-HCl pH 7.0, 150 mM NaCl, 5 mM β-mercaptoethanol; 42-fold symmetry, 4.5 Å

B1: wildtype pneumolysin (PLYWT), P0C2J9 1-471 (natural protein)
chain: T1 chain
In the case of B1, the stoichiometry N [1] is reported as 34 subunits, the stoichiometry N [2] is reported as 34 subunits and the stoichiometry N [3] is reported as 42 subunits.
